These results are taken from PMC8634136 (The EMBO Journal, 2021).

What all share (details): both partners purified
One test concerns the target T1, CLASPIN (human, UniProt Q9HAW4-1 1-1339).
T1 construct: human CLASPIN; residues 284-319, 525-540 and 592-618 modelled
In words: cryo-EM structure; independent replisome preparation that also contained CLASPIN; map EMD-13494 (to be published in a separate study), model PDB 7PFO docked into the density.

For another test, the target named is T2, TIMELESS (human, UniProt Q9UNS1 1-1208).
T2 construct: Stood in the structure as a subunit of m3; residues 7-803 modelled (527-684 not visualised)
T2 sequence: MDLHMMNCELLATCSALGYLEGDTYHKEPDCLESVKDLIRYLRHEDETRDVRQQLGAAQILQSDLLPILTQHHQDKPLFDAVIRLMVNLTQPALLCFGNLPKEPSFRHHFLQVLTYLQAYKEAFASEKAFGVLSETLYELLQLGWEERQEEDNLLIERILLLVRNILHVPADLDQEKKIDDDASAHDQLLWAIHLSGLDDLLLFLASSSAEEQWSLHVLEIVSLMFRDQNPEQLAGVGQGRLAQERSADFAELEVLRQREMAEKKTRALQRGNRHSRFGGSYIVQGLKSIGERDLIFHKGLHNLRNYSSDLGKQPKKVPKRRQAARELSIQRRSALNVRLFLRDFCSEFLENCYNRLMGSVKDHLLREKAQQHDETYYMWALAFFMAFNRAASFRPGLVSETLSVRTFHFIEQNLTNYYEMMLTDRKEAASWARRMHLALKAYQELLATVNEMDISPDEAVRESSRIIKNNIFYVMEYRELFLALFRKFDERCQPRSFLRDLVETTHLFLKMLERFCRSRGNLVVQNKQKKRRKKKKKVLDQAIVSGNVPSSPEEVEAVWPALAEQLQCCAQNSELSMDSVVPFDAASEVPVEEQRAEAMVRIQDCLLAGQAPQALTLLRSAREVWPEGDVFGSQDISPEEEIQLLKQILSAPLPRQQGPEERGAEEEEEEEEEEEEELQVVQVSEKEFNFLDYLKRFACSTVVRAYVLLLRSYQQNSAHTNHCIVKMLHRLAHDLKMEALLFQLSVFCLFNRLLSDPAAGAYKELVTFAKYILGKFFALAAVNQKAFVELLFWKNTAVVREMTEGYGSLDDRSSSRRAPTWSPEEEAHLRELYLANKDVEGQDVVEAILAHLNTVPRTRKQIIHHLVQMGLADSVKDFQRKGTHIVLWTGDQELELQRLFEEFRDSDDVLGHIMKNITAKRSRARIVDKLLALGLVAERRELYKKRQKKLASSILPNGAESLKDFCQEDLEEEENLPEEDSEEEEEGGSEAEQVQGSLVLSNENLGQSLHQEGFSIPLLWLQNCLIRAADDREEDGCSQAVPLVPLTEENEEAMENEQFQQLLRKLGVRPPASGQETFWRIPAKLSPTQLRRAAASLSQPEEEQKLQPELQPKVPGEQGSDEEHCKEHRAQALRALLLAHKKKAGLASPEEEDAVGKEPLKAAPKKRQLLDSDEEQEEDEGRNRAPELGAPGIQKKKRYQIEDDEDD
The experiment in a line: cryo-EM structure; replisome reconstituted on fork DNA with AMP-PNP, isolated on a glycerol gradient with glutaraldehyde and BS3; 3.2 Å overall; a sample without CLASPIN solved at 3.4 Å.

Test [1] concerns the target T3, human CDC45‐MCM‐GINS (CMG) helicase (human, UniProt P49736 1-904; P25205 1-808; P33991 1-863; P33992 1-734; Q14566 1-821; P33993 …).
T3 construct: MCM2, human; MCM3, human; the construct lacks the 45 additional N-terminal amino acids of the longer isoform used in PDB 6XTX; MCM4, human; MCM5, human; MCM6, human; MCM7, human; CDC45, human; PSF1 (GINS subunit), human; PSF2 (GINS subunit), human; PSF3 (GINS subunit), human; SLD5 (GINS subunit), human; also called hsCMG; source: Hi5 insect cells co-infected with baculoviruses for MCM2-7, GINS …
The experiment in a line: co-sedimentation; native glycerol gradient without cross-linker (40 mM HEPES-NaOH pH 7.5, 150 mM NaOAc, 0.5 mM TCEP, 500 µM AMP-PNP, 3 mM Mg(OAc)2), 200,000 g, 4°C, 2 h; 100 nM CMG pre-incubated with fork DNA, 1.5-fold molar excess of the other proteins; fractions on silver-stained SDS-PAGE.

T1 sequence (Q9HAW4 whole entry, the tested form may be a part): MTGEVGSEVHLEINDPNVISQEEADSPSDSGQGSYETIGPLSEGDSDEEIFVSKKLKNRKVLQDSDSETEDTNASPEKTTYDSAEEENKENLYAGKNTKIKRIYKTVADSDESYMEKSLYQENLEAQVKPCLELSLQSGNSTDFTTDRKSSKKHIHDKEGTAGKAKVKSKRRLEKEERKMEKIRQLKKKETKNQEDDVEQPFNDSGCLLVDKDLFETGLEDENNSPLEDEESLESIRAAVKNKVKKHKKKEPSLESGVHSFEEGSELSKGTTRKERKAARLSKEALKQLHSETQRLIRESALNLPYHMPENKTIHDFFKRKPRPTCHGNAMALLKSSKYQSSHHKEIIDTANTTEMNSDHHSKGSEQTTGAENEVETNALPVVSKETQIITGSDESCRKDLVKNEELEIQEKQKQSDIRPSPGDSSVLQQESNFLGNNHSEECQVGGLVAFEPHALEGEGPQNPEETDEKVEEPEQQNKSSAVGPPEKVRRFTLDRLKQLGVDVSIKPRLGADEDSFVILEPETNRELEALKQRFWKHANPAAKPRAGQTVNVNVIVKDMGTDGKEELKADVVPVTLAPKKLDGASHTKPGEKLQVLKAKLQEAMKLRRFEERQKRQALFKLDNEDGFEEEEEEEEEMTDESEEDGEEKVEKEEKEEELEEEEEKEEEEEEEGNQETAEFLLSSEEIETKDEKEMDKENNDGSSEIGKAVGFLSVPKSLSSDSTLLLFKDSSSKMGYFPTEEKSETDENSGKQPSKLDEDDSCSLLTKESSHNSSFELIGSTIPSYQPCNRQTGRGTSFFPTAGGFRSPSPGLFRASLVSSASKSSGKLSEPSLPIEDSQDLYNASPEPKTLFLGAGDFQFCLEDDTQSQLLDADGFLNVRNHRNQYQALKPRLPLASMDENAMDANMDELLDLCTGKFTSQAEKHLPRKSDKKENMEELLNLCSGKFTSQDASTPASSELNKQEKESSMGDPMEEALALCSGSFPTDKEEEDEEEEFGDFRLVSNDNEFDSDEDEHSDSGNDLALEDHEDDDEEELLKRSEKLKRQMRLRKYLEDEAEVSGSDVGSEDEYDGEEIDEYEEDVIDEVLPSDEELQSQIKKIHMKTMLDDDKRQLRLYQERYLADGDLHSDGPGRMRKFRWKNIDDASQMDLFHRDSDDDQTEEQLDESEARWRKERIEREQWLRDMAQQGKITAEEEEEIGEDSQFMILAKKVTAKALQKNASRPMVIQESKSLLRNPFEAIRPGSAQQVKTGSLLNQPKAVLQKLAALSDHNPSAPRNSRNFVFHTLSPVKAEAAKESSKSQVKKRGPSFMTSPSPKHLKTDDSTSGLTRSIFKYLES

B1: MCM6 (natural protein, human)
chain: MDLAAAAEPGAGSQHLEVRDEVAEKCQKLFLDFLEEFQSSDGEIKYLQLAEELIRPERNTLVVSFVDLEQFNQQLSTTIQEEFYRVYPYLCRALKTFVKDRKEIPLAKDFYVAFQDLPTRHKIRELTSSRIGLLTRISGQVVRTHPVHPELVSGTFLCLDCQTVIRDVEQQFKYTQPNICRNPVCANRRRFLLDTNKSRFVDFQKVRIQETQAELPRGSIPRSLEVILRAEAVESAQAGDKCDFTGTLIVVPDVSKLSTPGARAETNSRVSGVDGYETEGIRGLRALGVRDLSYRLVFLACCVAPTNPRFGGKELRDEEQTAESIKNQMTVKEWEKVFEMSQDKNLYHNLCTSLFPTIHGNDEVKRGVLLMLFGGVPKTTGEGTSLRGDINVCIVGDPSTAKSQFLKHVEEFSPRAVYTSGKASSAAGLTAAVVRDEESHEFVIEAGALMLADNGVCCIDEFDKMDVRDQVAIHEAMEQQTISITKAGVKATLNARTSILAAANPISGHYDRSKSLKQNINLSAPIMSRFDLFFILVDECNEVTDYAIARRIVDLHSRIEESIDRVYSLDDIRRYLLFARQFKPKISKESEDFIVEQYKHLRQRDGSGVTKSSWRITVRQLESMIRLSEAMARMHCCDEVQPKHVKEAFRLLNKSIIRVETPDVNLDQEEEIQMEVDEGAGGINGHADSPAPVNGINGYNEDINQESAPKASLRLGFSEYCRISNLIVLHLRKVEEEEDESALKRSELVNWYLKEIESEIDSEEELINKKRIIEKVIHRLTHYDHVLIELTQAGLKGSTEGSESYEEDPYLVVNPNYLLED
notes: human MCM6, subunit of hsCMG; Subunit of the CMG helicase in the replisome structure; source: Hi5 insect cells co-infected with baculoviruses for MCM2-7, GINS and CDC45; purified as hsCMG (Flag M2, Strep-Tactin XT, MonoQ)
In the case of B1, the binding result with CLASPIN is recorded as “binds”.

B2: MCM4 (natural protein, human)
chain: MSSPASTPSRRGSRRGRATPAQTPRSEDARSSPSQRRRGEDSTSTGELQPMPTSPGVDLQSPAAQDVLFSSPPQMHSSAIPLDFDVSSPLTYGTPSSRVEGTPRSGVRGTPVRQRPDLGSAQKGLQVDLQSDGAAAEDIVASEQSLGQKLVIWGTDVNVAACKENFQRFLQRFIDPLAKEEENVGIDITEPLYMQRLGEINVIGEPFLNVNCEHIKSFDKNLYRQLISYPQEVIPTFDMAVNEIFFDRYPDSILEHQIQVRPFNALKTKNMRNLNPEDIDQLITISGMVIRTSQLIPEMQEAFFQCQVCAHTTRVEMDRGRIAEPSVCGRCHTTHSMALIHNRSLFSDKQMIKLQESPEDMPAGQTPHTVILFAHNDLVDKVQPGDRVNVTGIYRAVPIRVNPRVSNVKSVYKTHIDVIHYRKTDAKRLHGLDEEAEQKLFSEKRVELLKELSRKPDIYERLASALAPSIYEHEDIKKGILLQLFGGTRKDFSHTGRGKFRAEINILLCGDPGTSKSQLLQYVYNLVPRGQYTSGKGSSAVGLTAYVMKDPETRQLVLQTGALVLSDNGICCIDEFDKMNESTRSVLHEVMEQQTLSIAKAGIICQLNARTSVLAAANPIESQWNPKKTTIENIQLPHTLLSRFDLIFLLLDPQDEAYDRRLAHHLVALYYQSEEQAEEELLDMAVLKDYIAYAHSTIMPRLSEEASQALIEAYVDMRKIGSSRGMVSAYPRQLESLIRLAEAHAKVRLSNKVEAIDVEEAKRLHREALKQSATDPRTGIVDISILTTGMSATSRKRKEELAEALKKLILSKGKTPALKYQQLFEDIRGQSDIAITKDMFEEALRALADDDFLTVTGKTVRLL
notes: MCM4, human; Stood in the structure as a subunit of m1; source: Hi5 insect cells, purified as a subunit of hsCMG
In the case of B2, in the test with TIMELESS, the binding result is “binds”.

B3: TIMELESS (natural protein, human)
chain: T2 sequence
notes: residues 7-803 modelled, 527-684 not seen; Purified together with TIPIN; written here as a single subunit for the pairwise contacts in the replisome structure
Regarding B3, the binding result in the test with CLASPIN was “binds”.

B4: TIMELESS‐TIPIN heterodimer (complex, human)
chain 1: T2 sequence
chain 2: MLEPQENGVIDLPDYEHVEDETFPPFPPPASPERQDGEGTEPDEESGNGAPVRVPPKRTVKRNIPKLDAQRLISERGLPALRHVFDKAKFKGKGHEAEDLKMLIRHMEHWAHRLFPKLQFEDFIDRVEYLGSKKEVQTCLKRIRLDLPILHEDFVSNNDEVAENNEHDVTSTELDPFLTNLSESEMFASELSRSLTEEQQQRIERNKQLALERRQAKLLSNSQTLGNDMLMNTPRAHTVEEVNTDEDQKEESNGLNEDILDNPCNDAIANTLNEEETLLDQSFKNVQQQLDATSRNITEAR
notes: TIPIN, human; no cleavage is described in the purification; source: Hi5 insect cells (baculovirus), purified (Strep-Tactin XT, HiTrap Q, Superdex 200)
Turning to B4, the binding result in test [1] is listed as “binds”.
